{"source": "paper PMC9873690", "about": "“Structural insights into the elevator-type transport mechanism of a bacterial ZIP metal transporter” (Nature Communications, 2023)", "target": "the molecule itself", "experiment": "cross-linking; disulfide cross-linking of variants purified in DDM with 50 µM Cu(II)-(1,10-phenanthroline)3 at 25 °C; non-reducing SDS-PAGE and Western blot with anti-Histag antibody"}
{"protein": "BbZIP L138C/M295C variant (natural protein, Purified protein was detected with the anti-Histag antibody; in the membrane fraction it was detected with a custom monoclonal antibody against BbZIP; source: E. coli C41 (DE3) pLysS, purified in DDM (1 mM TCEP except in the last size-exclusion step); also in the spheroplast-derived membrane fraction of E. coli cells; not shown: His-tag, N-terminal, kept) MNQPSSLAADLRGAWHAQAQSHPLITLGLAASAAGVVLLLVAGIVNALTGENRVHVGYAVLGGAAGFAATALGALMALGLRAISARTQDAMLGFAAGMMLAASAFSLILPGLDAAGTIVGPGPAAAAVVALGLGLGVCLMLGLDYFTPHEHERTGHQGPEAARVNRVWLFVLTIILHNLPEGMAIGVSFATGDLRIGLPLTSAIAIQDVPEGLAVALALRAVGLPIGRAVLVAVASGLMEPLGALVGVGISSGFALAYPISMGLAAGAMIFVVSHEVIPETHRNGHETTATVGLCAGFALMMFLDTALG", "values": [{"measurement": "stoichiometry N", "result": 2}]}
